The values below come from the supplement of paper PMC5998384.

For series [1], the system named is HeLa Kyoto. The series can be described thus: solubility in G1/S (NP-40 vs SDS abundance) (log2 ratio); higher = more soluble. As to conditions: cell cycle stage: G1/S.
In series [2] the test system is HeLa Kyoto. The series can be described thus: melting temperature (median over replicates), in situ; higher = more thermally stable.
The subject of series [3] is HeLa Kyoto. Nature of the series: solubility change mitosis vs G1/S (difference of NP-40 vs SDS log2 ratios) (log2 ratio difference); higher = more soluble in mitosis.
Series [4] concerns HeLa Kyoto. The series can be described thus: thermal stability score vs G1/S (z-score of summed log2 fold changes over temperatures); higher = more thermally stable than in G1/S.
Setting [5] is: cell cycle stage: early G1 (4.5 h after nocodazole release).
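Throughout, for melting temperature (median over replicates), in situ: HeLa Kyoto cells synchronized by double thymidine or nocodazole block, proteins quantified by TMT10plex mass spectrometry, three independent biological replicates.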
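Throughout, for solubility change mitosis vs G1/S (difference of NP-40 vs SDS log2 ratios): synchronized HeLa Kyoto cells (double thymidine block for G1/S, nocodazole release for mitosis), protein amounts in NP-40 versus SDS lysates quantified by mass spectrometry, three biological replicates.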
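Throughout, for solubility in G1/S (NP-40 vs SDS abundance): HeLa Kyoto cells arrested at G1/S by double thymidine block, proteins quantified by TMT10plex mass spectrometry in mild NP-40 versus SDS extracts, three biological replicates.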
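Throughout, for thermal stability score vs G1/S (z-score of summed log2 fold changes over temperatures): synchronized HeLa Kyoto cells, proteins quantified by TMT10plex mass spectrometry, three biological replicates, mitosis taken 0.5 h after nocodazole release, G1/S directly after double thymidine block.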

In the case of “MATANFGKIQIGIYVEIKRSDGRIHQAMVTSLNEDNESVTVEWIENGDTKGKEIDLESIFSLNPDLVPDEEIEPSPETPPPPASSAKVNKIVKNRRTVASIKNDPPSRDNRVVGSARARPSQFPEQSSSAQQNGSVSDISPVQAAKKEFGPPSRRKSNCVKEVEKLQEKREKRRLQQQELREKRAQDVDATNPNYEIMCMIRDFRGSLDYRPLTTADPIDEHRICVCVRKRPLNKKETQMKDLDVITIPSKDVVMVHEPKQKVDLTRYLENQTFRFDYAFDDSAPNEMVYRFTARPLVETIFERGMATCFAYGQTGSGKTHTMGGDFSGKNQDCSKGIYALAARDVFLMLKKPNYKKLELQVYATFFEIYSGKVFDLLNRKTKLRVLEDGKQQVQVVGLQEREVKCVEDVLKLIDIGNSCRTSGQTSANAHSSRSHAVFQIILRRKGKLHGKFSLIDLAGNERGADTSSADRQTRLEGAEINKSLLALKECIRALGRNKPHTPFRASKLTQVLRDSFIGENSRTCMIATISPGMASCENTLNTLRYANRVKELTVDPTAAGDVRPIMHHPPNQIDDLETQWGVGSSPQRDDLKLLCEQNEEEVSPQLFTFHEAVSQMVEMEEQVVEDHRAVFQESIRWLEDEKALLEMTEEVDYDVDSYATQLEAILEQKIDILTELRDKVKSFRAALQEEEQASKQINPKRPRAL [KIF2A]”, the “solubility in G1/S (log2)” value with HeLa Kyoto [1] was -0.149. Further, the melting temperature is 50 °C in the series on HeLa Kyoto [2] (cell cycle stage: G1/S) and 50.1 °C in the series with HeLa Kyoto [2] (cell cycle stage: mitosis). In addition, the “solubility change mitosis (log2)” value in the series with HeLa Kyoto [3] is -0.0102. Moreover, the thermal stability score came out at 1.7 in the series on HeLa Kyoto [4] (setting [5]) and 1.64 in the series with HeLa Kyoto [4] (cell cycle stage: mitosis).
As for “MATATEQWVLVEMVQALYEAPAYHLILEGILILWIIRLLFSKTYKLQERSDLTVKEKEELIEEWQPEPLVPPVPKDHPALNYNIVSGPPSHKTVVNGKECINFASFNFLGLLDNPRVKAAALASLKKYGVGTCGPRGFYGTFDVHLDLEDRLAKFMKTEEAIIYSYGFATIASAIPAYSKRGDIVFVDRAACFAIQKGLQASRSDIKLFKHNDMADLERLLKEQEIEDQKNPRKARVTRRFIVVEGLYMNTGTICPLPELVKLKYKYKARIFLEESLSFGVLGEHGRGVTEHYGINIDDIDLISANMENALASIGGFCCGRSFVIDHQRLSGQGYCFSASLPPLLAAAAIEALNIMEENPGIFAVLKEKCGQIHKALQGISGLKVVGESLSPAFHLQLEESTGSREQDVRLLQEIVDQCMNRSIALTQARYLEKEEKCLPPPSIRVVVTVEQTEEELERAASTIKEVAQAVLL [SPTLC1]”, the “solubility in G1/S (log2)” value in the series on HeLa Kyoto [1] is -0.0163. Besides, the melting temperature in the series on HeLa Kyoto [2] (cell cycle stage: G1/S) turned out to be 51.5 °C; in the series with HeLa Kyoto [2] (cell cycle stage: mitosis), 52 °C. For the same sequence, in the series on HeLa Kyoto [3], the “solubility change mitosis (log2)” value was -0.06. Further, the thermal stability score is 0.272 in the series with HeLa Kyoto [4] (setting [5]) and -0.0699 in the series on HeLa Kyoto [4] (cell cycle stage: mitosis).
As for “MATATIALQVNGQQGGGSEPAAAAAVVAAGDKWKPPQGTDSIKMENGQSTAAKLGLPPLTPEQQEALQKAKKYAMEQSIKSVLVKQTIAHQQQQLTNLQMAAVTMGFGDPLSPLQSMAAQRQRALAIMCRVYVGSIYYELGEDTIRQAFAPFGPIKSIDMSWDSVTMKHKGFAFVEYEVPEAAQLALEQMNSVMLGGRNIKVGRPSNIGQAQPIIDQLAEEARAFNRIYVASVHQDLSDDDIKSVFEAFGKIKSCTLARDPTTGKHKGYGFIEYEKAQSSQDAVSSMNLFDLGGQYLRVGKAVTPPMPLLTPATPGGLPPAAAVAAAAATAKITAQEAVAGAAVLGTLGTPGLVSPALTLAQPLGTLPQAVMAAQAPGVITGVTPARPPIPVTIPSVGVVNPILASPPTLGLLEPKKEKEEEELFPESERPEMLSEQEHMSISGSSARHMVMQKLLRKQESTVMVLRNMVDPKDIDDDLEGEVTEECGKFGAVNRVIIYQEKQGEEEDAEIIVKIFVEFSIASETHKAIQALNGRWFAGRKVVAEVYDQERFDNSDLSA [PUF60]”, in the series with HeLa Kyoto [1], the “solubility in G1/S (log2)” value is 0.0524. The melting temperature in the series on HeLa Kyoto [2] (cell cycle stage: G1/S) came out at 49.1 °C; in the series on HeLa Kyoto [2] (cell cycle stage: mitosis), 50.6 °C. In the series with HeLa Kyoto [3], the “solubility change mitosis (log2)” value was 0.0253. Moreover, the thermal stability score with HeLa Kyoto [4] (setting [5]) worked out at 1.71; in the series with HeLa Kyoto [4] (cell cycle stage: mitosis) it was 5.96.
On to “MATCIWLRSCGARRLGSTFPGCRLRPRAGGLVPASGPAPGPAQLRCYAGRLAGLSAALLRTDSFVGGRWLPAAATFPVQDPASGAALGMVADCGVREARAAVRAAYEAFCRWREVSAKERSSLLRKWYNLMIQNKDDLARIITAESGKPLKEAHGEILYSAFFLEWFSEEARRVYGDIIHTPAKDRRALVLKQPIGVAAVITPWNFPSAMITRKVGAALAAGCTVVVKPAEDTPFSALALAELASQAGIPSGVYNVIPCSRKNAKEVGEAICTDPLVSKISFTGSTTTGKILLHHAANSVKRVSMELGGLAPFIVFDSANVDQAVAGAMASKFRNTGQTCVCSNQFLVQRGIHDAFVKAFAEAMKKNLRVGNGFEEGTTQGPLINEKAVEKVEKQVNDAVSKGATVVTGGKRHQLGKNFFEPTLLCNVTQDMLCTHEETFGPLAPVIKFDTEEEAIAIANAADVGLAGYFYSQDPAQIWRVAEQLEVGMVGVNEGLISSVECPFGGVKQSGLGREGSKYGIDEYLELKYVCYGGL [ALDH5A1]”, for which the “solubility in G1/S (log2)” value with HeLa Kyoto [1] was determined as 0.125. Further, the melting temperature in the series on HeLa Kyoto [2] (cell cycle stage: G1/S) was found to be 56.1 °C; in the series with HeLa Kyoto [2] (cell cycle stage: mitosis) it was 54.8 °C. The “solubility change mitosis (log2)” value in the series with HeLa Kyoto [3] is -0.0409. The results for the thermal stability score in the series on HeLa Kyoto [4] (setting [5]) and in the series on HeLa Kyoto [4] (cell cycle stage: mitosis) were 1.08 and 0.0757, respectively.
Turning to “MATDTSQGELVHPKALPLIVGAQLIHADKLGEKVEDSTMPIRRTVNSTRETPPKSKLAEGEEEKPEPDISSEESVSTVEEQENETPPATSSEAEQPKGEPENEEKEENKSSEETKKDEKDQSKEKEKKVKKTIPSWATLSASQLARAQKQTPMASSPRPKMDAILTEAIKACFQKSGASVVAIRKYIIHKYPSLELERRGYLLKQALKRELNRGVIKQVKGKGASGSFVVVQKSRKTPQKSRNRKNRSSAVDPEPQVKLEDVLPLAFTRLCEPKEASYSLIRKYVSQYYPKLRVDIRPQLLKNALQRAVERGQLEQITGKGASGTFQLKKSGEKPLLGGSLMEYAILSAIAAMNEPKTCSTTALKKYVLENHPGTNSNYQMHLLKKTLQKCEKNGWMEQISGKGFSGTFQLCFPYYPSPGVLFPKKEPDDSRDEDEDEDESSEEDSEDEEPPPKRRLQKKTPAKSPGKAASVKQRGSKPAPKVSAAQRGKARPLPKKAPPKAKTPAKKTRPSSTVIKKPSGGSSKKPATSARKEVKLPGKGKSTMKKSFRVKK [HP1BP3]”, the “solubility in G1/S (log2)” value with HeLa Kyoto [1] is -1.01. The values for the melting temperature in the series with HeLa Kyoto [2] (cell cycle stage: G1/S) and in the series with HeLa Kyoto [2] (cell cycle stage: mitosis) were 51.8 °C and 51.5 °C, respectively. The “solubility change mitosis (log2)” value with HeLa Kyoto [3] is 0.474. Besides, the thermal stability score came to 0.824 with HeLa Kyoto [4] (setting [5]) and 0.423 in the series with HeLa Kyoto [4] (cell cycle stage: mitosis).
In the case of “MATKIDKEACRAAYNLVRDDGSAVIWVTFKYDGSTIVPGEQGAEYQHFIQQCTDDVRLFAFVRFTTGDAMSKRSKFALITWIGENVSGLQRAKTGTDKTLVKEVVQNFAKEFVISDRKELEEDFIKSELKKAGGANYDAQTE [COTL1]”, the “solubility in G1/S (log2)” value in the series on HeLa Kyoto [1] turned out to be 0.108. Further, the melting temperature in the series with HeLa Kyoto [2] (cell cycle stage: G1/S) stood at 52.4 °C; in the series on HeLa Kyoto [2] (cell cycle stage: mitosis), 52.8 °C. In the series on HeLa Kyoto [3], the “solubility change mitosis (log2)” value was 0.0356. Besides, the figures for the thermal stability score in the series on HeLa Kyoto [4] (setting [5]) and in the series on HeLa Kyoto [4] (cell cycle stage: mitosis) were 3.44 and 1.43, respectively.
For “MATKTAGVGRWEVVKKGRRPGVGAGAGGRGGGRNRRALGEANGVWKYDLTPAIQTTSTLYERGFENIMKRQNKEQVPPPAVEPKKPGNKKQPKKVATPPNQNQKQGRFRSLEEALKALDVADLQKELDKSQSVFSGNPSIWLKDLASYLNYKLQAPLSEPTLSQHTHDYPYSLVSRELRGIIRGLLAKAAGSLELFFDHCLFTMLQELDKTPGESLHGYRICIQAILQDKPKIATANLGKFLELLRSHQSRPAKCLTIMWALGQAGFANLTEGLKVWLGIMLPVLGIKSLSPFAITYLDRLLLMHPNLTKGFGMIGPKDFFPLLDFAYMPNNSLTPSLQEQLCQLYPRLKVLAFGAKPDSTLHTYFPSFLSRATPSCPPEMKKELLSSLTECLTVDPLSASVWRQLYPKHLSQSSLLLEHLLSSWEQIPKKVQKSLQETIQSLKLTNQELLRKGSSNNQDVVTCDMACKGLLQQVQGPRLPWTRLLLLLLVFAVGFLCHDLRSHSSFQASLTGRLLRSSGFLPASQQACAKLYSYSLQGYSWLGETLPLWGSHLLTVVRPSLQLAWAHTNATVSFLSAHCASHLAWFGDSLTSLSQRLQIQLPDSVNQLLRYLRELPLLFHQNVLLPLWHLLLEALAWAQEHCHEACRGEVTWDCMKTQLSEAVHWTWLCLQDITVAFLDWALALISQQ [TMEM214]”, the “solubility in G1/S (log2)” value in the series with HeLa Kyoto [1] was -0.173. Moreover, the melting temperature in the series with HeLa Kyoto [2] (cell cycle stage: G1/S) came out at 51.1 °C; in the series on HeLa Kyoto [2] (cell cycle stage: mitosis) it was 49.8 °C. Further, in the series on HeLa Kyoto [3], the “solubility change mitosis (log2)” value was determined as 0.000207. Also, the thermal stability score was -1.35 in the series with HeLa Kyoto [4] (setting [5]) and -0.782 in the series with HeLa Kyoto [4] (cell cycle stage: mitosis).
For the sequence “MATLPAEPSAGPAAGGEAVAAAAATEEEEEEARQLLQTLQAAEGEAAAAAGAGAGAAAAGAEGPGSPGVPGSPPEAASEPPTGLRFSPEQVACVCEALLQAGHAGRLSRFLGALPPAERLRGSDPVLRARALVAFQRGEYAELYRLLESRPFPAAHHAFLQDLYLRARYHEAERARGRALGAVDKYRLRKKFPLPKTIWDGEETVYCFKERSRAALKACYRGNRYPTPDEKRRLATLTGLSLTQVSNWFKNRRQRDRTGAGGGAPCKSESDGNPTTEDESSRSPEDLERGAAPVSAEAAAQGSIFLAGTGPPAPCPASSSILVNGSFLAASGSPAVLLNGGPVIINGLALGEASSLGPLLLTGGGGAPPPQPSPQGASETKTSLVLDPQTGEVRLEEAQSEAPETKGAQVAAPGPALGEEVLGPLAQVVPGPPTAATFPLPPGPVPAVAAPQVVPLSPPPGYPTGLSPTSPLLNLPQVVPTSQVVTLPQAVGPLQLLAAGPGSPVKVAAAAGPANVHLINSGVGVTALQLPSATAPGNFLLANPVSGSPIVTGVALQQGKIILTATFPTSMLVSQVLPPAPGLALPLKPETAISVPEGGLPVAPSPALPEAHALGTLSAQQPPPAAATTSSTSLPFSPDSPGLLPNFPAPPPEGLMLSPAAVPVWSAGLELSAGTEGLLEAEKGLGTQAPHTVLRLPDPDPEGLLLGATAGGEVDEGLEAEAKVLTQLQSVPVEEPLEL [SIX5]”, the “solubility in G1/S (log2)” value in the series on HeLa Kyoto [1] is -0.308. Also, the melting temperature in the series on HeLa Kyoto [2] (cell cycle stage: mitosis) was determined as 50.7 °C. In addition, the “solubility change mitosis (log2)” value in the series on HeLa Kyoto [3] worked out at 0.346. Moreover, the thermal stability score is 0.121 in the series on HeLa Kyoto [4] (setting [5]) and 0.872 in the series with HeLa Kyoto [4] (cell cycle stage: mitosis).
